Measured values taken from IntAct's records for PubMed 20551905.

B1: SUN domain-containing protein 2 (Homo sapiens), Q9UH99 (parent)
chain: MSRRSQRLTRYSQGDDDGSSSSGGSSVAGSQSTLFKDSPLRTLKRKSSNMKRLSPAPQLGPSSDAHTSYYSESLVHESWFPPRSSLEELHGDANWGEDLRVRRRRGTGGSESSRASGLVGRKATEDFLGSSSGYSSEDDYVGYSDVDQQSSSSRLRSAVSRAGSLLWMVATSPGRLFRLLYWWAGTTWYRLTTAASLLDVFVLTRRFSSLKTFLWFLLPLLLLTCLTYGAWYFYPYGLQTFHPALVSWWAAKDSRRPDEGWEARDSSPHFQAEQRVMSRVHSLERRLEALAAEFSSNWQKEAMRLERLELRQGAPGQGGGGGLSHEDTLALLEGLVSRREAALKEDFRRETAARIQEELSALRAEHQQDSEDLFKKIVRASQESEARIQQLKSEWQSMTQESFQESSVKELRRLEDQLAGLQQELAALALKQSSVAEEVGLLPQQIQAVRDDVESQFPAWISQFLARGGGGRVGLLQREEMQAQLRELESKILTHVAEMQGKSAREAAASLSLTLQKEGVIGVTEEQVHHIVKQALQRYSEDRIGLADYALESGGASVISTRCSETYETKTALLSLFGIPLWYHSQSPRVILQPDVHPGNCWAFQGPQGFAVVRLSARIRPTAVTLEHVPKALSPNSTISSAPKDFAIFGFDEDLQQEGTLLGKFTYDQDGEPIQTFHFQAPTMATYQVVELRILTNWGHPEYTCIYRFRVHGEPAH

Variants of: B1
Settings: with copb_human COPB1, P53618
copb_human COPB1, P53618, sequence (P53618 whole entry): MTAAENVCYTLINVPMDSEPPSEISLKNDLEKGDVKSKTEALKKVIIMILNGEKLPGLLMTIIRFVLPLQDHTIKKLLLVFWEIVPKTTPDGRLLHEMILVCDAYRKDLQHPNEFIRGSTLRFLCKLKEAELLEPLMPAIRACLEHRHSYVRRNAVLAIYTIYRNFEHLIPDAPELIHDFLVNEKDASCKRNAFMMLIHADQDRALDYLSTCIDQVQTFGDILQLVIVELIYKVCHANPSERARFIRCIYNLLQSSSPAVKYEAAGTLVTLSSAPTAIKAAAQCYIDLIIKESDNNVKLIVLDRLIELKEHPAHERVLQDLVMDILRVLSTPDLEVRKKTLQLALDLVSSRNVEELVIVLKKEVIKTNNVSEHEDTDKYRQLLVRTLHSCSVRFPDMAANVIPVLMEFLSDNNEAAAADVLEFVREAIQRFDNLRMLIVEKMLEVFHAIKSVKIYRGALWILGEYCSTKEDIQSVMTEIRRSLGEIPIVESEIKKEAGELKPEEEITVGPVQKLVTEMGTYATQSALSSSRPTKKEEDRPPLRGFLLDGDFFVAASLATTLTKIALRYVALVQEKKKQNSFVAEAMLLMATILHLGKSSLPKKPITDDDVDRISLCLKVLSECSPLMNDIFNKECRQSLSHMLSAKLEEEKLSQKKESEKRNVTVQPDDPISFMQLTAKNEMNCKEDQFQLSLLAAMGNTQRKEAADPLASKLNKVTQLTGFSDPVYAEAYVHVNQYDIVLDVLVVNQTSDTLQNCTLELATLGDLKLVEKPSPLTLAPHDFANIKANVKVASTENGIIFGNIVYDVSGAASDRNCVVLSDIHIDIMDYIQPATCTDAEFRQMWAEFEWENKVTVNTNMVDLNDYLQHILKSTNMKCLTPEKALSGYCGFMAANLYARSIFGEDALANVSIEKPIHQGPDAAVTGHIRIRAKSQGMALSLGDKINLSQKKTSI

Effect of a mutation on the interaction, disrupting interaction:
K51A
R41A
K44A
R102A;R103A;R104A;R105A
R45A
K46A
R52A
